62 sequences from the supplement of paper PMC9112550, “Optimization of the antimicrobial peptide Bac7 by deep mutational scanning” (BMC Biology, 2022) can be followed below.

This data set has as its system Escherichia coli TOP10. In words: shrunken log2 fold change of peptide-encoding DNA abundance (4.5 h post-induction vs induction); higher = less antimicrobial activity (less host growth inhibition). The note with it: time post-induction: 4.5 h; library: site-saturation at positions 5, 18, 19, 20.
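Further: peptides expressed intracellularly from a pBAD plasmid library in pooled LB shake-flask culture, induced with 0.3% L-arabinose, DNA abundance read by NGS, three biological replicates, DESeq2 with apeglm shrinkage.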

As for RRIRQRPPRLPRPRPRPLLQPRP, the “shrunken log2 fold change” value is 0.212.
The value for RRIRSRPPRLPRPRPRPMFYPRP was -0.544; that for RRIRIRPPRLPRPRPRPFFPPRP was -0.264; that for RRIRFRPPRLPRPRPRPNMCPRP was -0.54.
Turning to RRIRPRPPRLPRPRPRPRCRPRP, the “shrunken log2 fold change” value was found to be 0.217.
Under RRIRYRPPRLPRPRPRPPRCPRP stands -0.0545.
The value for RRIRGRPPRLPRPRPRPSEWPRP was 0.393; that for RRIRLRPPRLPRPRPRPTLMPRP was 0.0897; that for RRIRLRPPRLPRPRPRPILCPRP was -0.152.
The value for RRIRGRPPRLPRPRPRPRPHPRP was 0.51; that for RRIRWRPPRLPRPRPRPIEDPRP was -0.00101; that for RRIRCRPPRLPRPRPRPYHRPRP was -0.77.
In the case of RRIRTRPPRLPRPRPRPAMMPRP, the “shrunken log2 fold change” value was -0.109.
With RRIRYRPPRLPRPRPRPLMMPRP, the “shrunken log2 fold change” value is -0.692.
Turning to RRIRRRPPRLPRPRPRPVGTPRP, the “shrunken log2 fold change” value came out at 0.018.
Under RRIRPRPPRLPRPRPRPDLEPRP stands 0.063; under RRIRLRPPRLPRPRPRPAQIPRP, 0.214.
The value for RRIRPRPPRLPRPRPRPICDPRP was -0.0726.
As to RRIRRRPPRLPRPRPRPMRCPRP, the “shrunken log2 fold change” value was determined as 0.384.
The value for RRIRGRPPRLPRPRPRPKMTPRP was 1.83; that for RRIRDRPPRLPRPRPRPVWMPRP was 0.0445.
The value for RRIRQRPPRLPRPRPRPTRAPRP was 0.647; that for RRIRQRPPRLPRPRPRPRQKPRP was 0.257; that for RRIRIRPPRLPRPRPRPNMHPRP was -0.805.
RRIRERPPRLPRPRPRPRNAPRP: the “shrunken log2 fold change” value was determined as 0.105.
For the sequence RRIRWRPPRLPRPRPRPVKKPRP, the “shrunken log2 fold change” value stood at 0.29.
Consider RRIRRRPPRLPRPRPRPVFEPRP, for which the “shrunken log2 fold change” value came to 0.192.
For the sequence RRIRWRPPRLPRPRPRPKWKPRP, the “shrunken log2 fold change” value came out at 0.401.
For the sequence RRIRRRPPRLPRPRPRPAWMPRP, the “shrunken log2 fold change” value turned out to be 0.24.
RRIRGRPPRLPRPRPRPHIQPRP: the “shrunken log2 fold change” value amounted to 0.192.
Consider RRIRQRPPRLPRPRPRPNYYPRP, for which the “shrunken log2 fold change” value was -0.611.
Take RRIRERPPRLPRPRPRPIHWPRP: the “shrunken log2 fold change” value was -0.0429.
As to RRIRFRPPRLPRPRPRPPSIPRP, the “shrunken log2 fold change” value is -0.0341.
With RRIRTRPPRLPRPRPRPSNWPRP, the “shrunken log2 fold change” value is -0.281.
The value for RRIRVRPPRLPRPRPRPTQQPRP was 0.346.
As to RRIRTRPPRLPRPRPRPQKVPRP, the “shrunken log2 fold change” value was -0.0169.
Turning to RRIRRRPPRLPRPRPRPLMPPRP, the “shrunken log2 fold change” value was 0.297.
The value for RRIRCRPPRLPRPRPRPLEMPRP was -0.249; that for RRIRMRPPRLPRPRPRPHADPRP was 2; that for RRIRVRPPRLPRPRPRPMAPPRP was 0.0351.
Regarding RRIRQRPPRLPRPRPRPDIEPRP, the “shrunken log2 fold change” value was -0.32.
As to RRIRERPPRLPRPRPRPQARPRP, the “shrunken log2 fold change” value was -0.0863.
In the case of RRIRVRPPRLPRPRPRPQVTPRP, the “shrunken log2 fold change” value was -0.425.
Take RRIRMRPPRLPRPRPRPKPHPRP: the “shrunken log2 fold change” value was found to be 1.19.
As to RRIRNRPPRLPRPRPRPFMYPRP, the “shrunken log2 fold change” value was -0.247.
With RRIRERPPRLPRPRPRPRHAPRP, the “shrunken log2 fold change” value is -0.0387.
Consider RRIRRRPPRLPRPRPRPNSCPRP, for which the “shrunken log2 fold change” value is -0.0116.
For RRIRFRPPRLPRPRPRPFKNPRP, the “shrunken log2 fold change” value was -0.46.
The value for RRIRTRPPRLPRPRPRPATAPRP was 0.362; that for RRIRARPPRLPRPRPRPIMHPRP was -0.171.
As for RRIRMRPPRLPRPRPRPGPHPRP, the “shrunken log2 fold change” value amounted to 0.256.
As for RRIRDRPPRLPRPRPRPTQYPRP, the “shrunken log2 fold change” value was -0.191.
Under RRIRSRPPRLPRPRPRPGMIPRP stands -0.296; under RRIRKRPPRLPRPRPRPEWCPRP, 0.278; under RRIRDRPPRLPRPRPRPEQIPRP, -0.0105.
Regarding RRIRWRPPRLPRPRPRPIREPRP, the “shrunken log2 fold change” value came out at 0.411.
Regarding RRIRTRPPRLPRPRPRPGWNPRP, the “shrunken log2 fold change” value was -0.039.
Turning to RRIRYRPPRLPRPRPRPDFEPRP, the “shrunken log2 fold change” value is -0.0141.
With RRIRGRPPRLPRPRPRPMITPRP, the “shrunken log2 fold change” value worked out at 0.24.
Under RRIRHRPPRLPRPRPRPKSSPRP stands -0.0395; under RRIRLRPPRLPRPRPRPRSQPRP, 0.19.
RRIRSRPPRLPRPRPRPWWEPRP: the “shrunken log2 fold change” value is -0.0921.
